Reference: the supplement of paper PMC9112550, “Optimization of the antimicrobial peptide Bac7 by deep mutational scanning” (BMC Biology, 2022)
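Note: peptides expressed intracellularly from a pBAD plasmid library in pooled LB shake-flask culture, induced with 0.3% L-arabinose, DNA abundance read by NGS, three biological replicates, DESeq2 with apeglm shrinkage.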

What follows are sequences tested on Escherichia coli TOP10 (assay: shrunken log2 fold change of peptide-encoding DNA abundance (4.5 h post-induction vs induction); higher = less antimicrobial activity (less host growth inhibition)). Details: time post-induction: 4.5 h; library: site-saturation at positions 5, 18, 19, 20.
RRIRWRPPRLPRPRPRPRERPRP was tested, and the “shrunken log2 fold change” value was 0.859.
For RRIRERPPRLPRPRPRPATIPRP, the “shrunken log2 fold change” value was -0.105.
With RRIRYRPPRLPRPRPRPQIVPRP the “shrunken log2 fold change” value was -0.342.
With RRIRGRPPRLPRPRPRPKCHPRP the “shrunken log2 fold change” value was 0.78.
In the case of RRIRKRPPRLPRPRPRPHGRPRP, the “shrunken log2 fold change” value is reported as 0.239.
RRIRDRPPRLPRPRPRPAKLPRP was tested, and the “shrunken log2 fold change” value was 0.0322.
RRIRYRPPRLPRPRPRPTTGPRP was tested, and the “shrunken log2 fold change” value was -0.549.
In the case of RRIRNRPPRLPRPRPRPPKQPRP, the “shrunken log2 fold change” value is reported as 0.22.
With RRIRHRPPRLPRPRPRPMRHPRP the “shrunken log2 fold change” value was -0.0546.
With RRIRGRPPRLPRPRPRPKRTPRP the “shrunken log2 fold change” value was 1.01.
For RRIRERPPRLPRPRPRPTEYPRP, the “shrunken log2 fold change” value was -0.123.
In the case of RRIRCRPPRLPRPRPRPNPVPRP, the “shrunken log2 fold change” value is reported as -0.209.
For RRIRVRPPRLPRPRPRPGLDPRP, the “shrunken log2 fold change” value was 0.0777.
In the case of RRIRIRPPRLPRPRPRPYMCPRP, the “shrunken log2 fold change” value is reported as -0.318.
For RRIRFRPPRLPRPRPRPEDGPRP, the “shrunken log2 fold change” value was 0.333.
For RRIRSRPPRLPRPRPRPKWKPRP, the “shrunken log2 fold change” value was -0.0184.
For RRIRVRPPRLPRPRPRPRVEPRP, the “shrunken log2 fold change” value was 0.558.
RRIRSRPPRLPRPRPRPVERPRP was tested, and the “shrunken log2 fold change” value was 0.187.
For RRIRFRPPRLPRPRPRPSAVPRP, the “shrunken log2 fold change” value was -0.119.
For RRIRMRPPRLPRPRPRPAAGPRP, the “shrunken log2 fold change” value was 1.56.
For RRIRLRPPRLPRPRPRPKTEPRP, the “shrunken log2 fold change” value was 0.14.
For RRIRMRPPRLPRPRPRPVNVPRP, the “shrunken log2 fold change” value was 0.0663.
RRIRFRPPRLPRPRPRPWQEPRP was tested, and the “shrunken log2 fold change” value was -0.2.
For RRIRKRPPRLPRPRPRPLTHPRP, the “shrunken log2 fold change” value was 0.0737.
For RRIRNRPPRLPRPRPRPITMPRP, the “shrunken log2 fold change” value was -0.533.
With RRIRIRPPRLPRPRPRPNNQPRP the “shrunken log2 fold change” value was -0.836.
With RRIRQRPPRLPRPRPRPKWLPRP the “shrunken log2 fold change” value was 0.0992.
In the case of RRIRFRPPRLPRPRPRPWTSPRP, the “shrunken log2 fold change” value is reported as -0.0445.
For RRIRTRPPRLPRPRPRPEIMPRP, the “shrunken log2 fold change” value was -0.468.
RRIRGRPPRLPRPRPRPGDFPRP was tested, and the “shrunken log2 fold change” value was 0.00388.
RRIRRRPPRLPRPRPRPHSLPRP was tested, and the “shrunken log2 fold change” value was -0.113.
For RRIRLRPPRLPRPRPRPQHGPRP, the “shrunken log2 fold change” value was -0.0844.
RRIRERPPRLPRPRPRPTFAPRP was tested, and the “shrunken log2 fold change” value was -0.0119.
In the case of RRIRCRPPRLPRPRPRPRLSPRP, the “shrunken log2 fold change” value is reported as 0.0865.
For RRIRGRPPRLPRPRPRPKPHPRP, the “shrunken log2 fold change” value was 0.854.
For RRIRKRPPRLPRPRPRPDWSPRP, the “shrunken log2 fold change” value was 0.0357.
RRIRARPPRLPRPRPRPLEMPRP was tested, and the “shrunken log2 fold change” value was 0.75.
RRIRTRPPRLPRPRPRPLLDPRP was tested, and the “shrunken log2 fold change” value was 0.214.
In the case of RRIRKRPPRLPRPRPRPEHMPRP, the “shrunken log2 fold change” value is reported as 0.829.
For RRIRHRPPRLPRPRPRPEMDPRP, the “shrunken log2 fold change” value was 0.015.
In the case of RRIRGRPPRLPRPRPRPRNVPRP, the “shrunken log2 fold change” value is reported as 0.642.
For RRIRVRPPRLPRPRPRPPPGPRP, the “shrunken log2 fold change” value was 1.01.
For RRIRGRPPRLPRPRPRPEYTPRP, the “shrunken log2 fold change” value was 0.335.
In the case of RRIRTRPPRLPRPRPRPCKLPRP, the “shrunken log2 fold change” value is reported as -0.858.
With RRIRARPPRLPRPRPRPFEMPRP the “shrunken log2 fold change” value was 0.135.
In the case of RRIRVRPPRLPRPRPRPMCSPRP, the “shrunken log2 fold change” value is reported as -0.237.
With RRIRCRPPRLPRPRPRPPIHPRP the “shrunken log2 fold change” value was -0.248.
For RRIRGRPPRLPRPRPRPDDRPRP, the “shrunken log2 fold change” value was 0.814.
With RRIRKRPPRLPRPRPRPHWFPRP the “shrunken log2 fold change” value was 0.096.
RRIRTRPPRLPRPRPRPRFSPRP was tested, and the “shrunken log2 fold change” value was -0.14.
For RRIRCRPPRLPRPRPRPRIHPRP, the “shrunken log2 fold change” value was -0.226.
RRIRERPPRLPRPRPRPNTVPRP was tested, and the “shrunken log2 fold change” value was -0.595.
With RRIRVRPPRLPRPRPRPTERPRP the “shrunken log2 fold change” value was 0.302.
RRIRGRPPRLPRPRPRPQNVPRP was tested, and the “shrunken log2 fold change” value was 0.266.
For RRIRMRPPRLPRPRPRPAQNPRP, the “shrunken log2 fold change” value was 1.07.
With RRIRWRPPRLPRPRPRPMDDPRP the “shrunken log2 fold change” value was -0.172.
With RRIRRRPPRLPRPRPRPERKPRP the “shrunken log2 fold change” value was 0.0556.
For RRIRMRPPRLPRPRPRPRYGPRP, the “shrunken log2 fold change” value was 0.0305.
With RRIRHRPPRLPRPRPRPSCPPRP the “shrunken log2 fold change” value was -0.217.
In the case of RRIRMRPPRLPRPRPRPCFEPRP, the “shrunken log2 fold change” value is reported as 0.286.
For RRIRIRPPRLPRPRPRPTNWPRP, the “shrunken log2 fold change” value was -0.128.
With RRIRFRPPRLPRPRPRPFQNPRP the “shrunken log2 fold change” value was -0.041.
In the case of RRIRDRPPRLPRPRPRPQPPPRP, the “shrunken log2 fold change” value is reported as 0.424.
With RRIRYRPPRLPRPRPRPTREPRP the “shrunken log2 fold change” value was -0.145.
In the case of RRIRMRPPRLPRPRPRPYCMPRP, the “shrunken log2 fold change” value is reported as -0.53.
In the case of RRIRPRPPRLPRPRPRPRYGPRP, the “shrunken log2 fold change” value is reported as 0.00536.
With RRIRVRPPRLPRPRPRPSQGPRP the “shrunken log2 fold change” value was -0.371.
In the case of RRIRGRPPRLPRPRPRPPHTPRP, the “shrunken log2 fold change” value is reported as 0.985.
RRIRTRPPRLPRPRPRPDYWPRP was tested, and the “shrunken log2 fold change” value was -0.149.
In the case of RRIRIRPPRLPRPRPRPNGKPRP, the “shrunken log2 fold change” value is reported as -0.229.
For RRIRARPPRLPRPRPRPDAQPRP, the “shrunken log2 fold change” value was 1.35.
RRIRDRPPRLPRPRPRPLQKPRP was tested, and the “shrunken log2 fold change” value was -0.0982.
RRIRSRPPRLPRPRPRPEDDPRP was tested, and the “shrunken log2 fold change” value was 0.744.
In the case of RRIRGRPPRLPRPRPRPTPMPRP, the “shrunken log2 fold change” value is reported as 0.887.
With RRIRKRPPRLPRPRPRPRHVPRP the “shrunken log2 fold change” value was 0.0906.
